T1: human Sky forcedly expressed on HEK293F reporter cells (human, UniProt Q06418 41-890)
T1 sequence (looked up): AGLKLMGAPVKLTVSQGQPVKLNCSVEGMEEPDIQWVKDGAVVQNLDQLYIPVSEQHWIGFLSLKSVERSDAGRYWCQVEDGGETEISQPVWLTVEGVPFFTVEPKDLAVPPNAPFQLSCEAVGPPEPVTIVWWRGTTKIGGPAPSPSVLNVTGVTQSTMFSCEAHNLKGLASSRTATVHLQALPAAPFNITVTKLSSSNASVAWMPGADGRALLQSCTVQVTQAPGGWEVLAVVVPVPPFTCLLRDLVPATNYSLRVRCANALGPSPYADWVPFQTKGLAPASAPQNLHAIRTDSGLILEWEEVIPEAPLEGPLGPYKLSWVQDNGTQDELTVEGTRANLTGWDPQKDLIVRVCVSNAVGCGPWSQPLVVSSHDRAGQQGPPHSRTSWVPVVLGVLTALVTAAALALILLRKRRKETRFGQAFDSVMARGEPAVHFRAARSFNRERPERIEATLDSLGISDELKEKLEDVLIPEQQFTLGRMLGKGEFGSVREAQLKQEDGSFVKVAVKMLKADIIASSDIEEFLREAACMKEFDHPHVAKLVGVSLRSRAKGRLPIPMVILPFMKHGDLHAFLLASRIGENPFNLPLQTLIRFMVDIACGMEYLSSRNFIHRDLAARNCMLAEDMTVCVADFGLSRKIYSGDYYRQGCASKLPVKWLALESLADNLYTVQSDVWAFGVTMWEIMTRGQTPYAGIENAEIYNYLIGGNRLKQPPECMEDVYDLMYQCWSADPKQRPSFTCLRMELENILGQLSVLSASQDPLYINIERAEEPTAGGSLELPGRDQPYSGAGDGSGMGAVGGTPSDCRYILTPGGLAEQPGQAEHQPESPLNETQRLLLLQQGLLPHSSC

T2: human Mer forcedly expressed on HEK293F reporter cells (human, UniProt Q12866 21-999)
T2 sequence (looked up): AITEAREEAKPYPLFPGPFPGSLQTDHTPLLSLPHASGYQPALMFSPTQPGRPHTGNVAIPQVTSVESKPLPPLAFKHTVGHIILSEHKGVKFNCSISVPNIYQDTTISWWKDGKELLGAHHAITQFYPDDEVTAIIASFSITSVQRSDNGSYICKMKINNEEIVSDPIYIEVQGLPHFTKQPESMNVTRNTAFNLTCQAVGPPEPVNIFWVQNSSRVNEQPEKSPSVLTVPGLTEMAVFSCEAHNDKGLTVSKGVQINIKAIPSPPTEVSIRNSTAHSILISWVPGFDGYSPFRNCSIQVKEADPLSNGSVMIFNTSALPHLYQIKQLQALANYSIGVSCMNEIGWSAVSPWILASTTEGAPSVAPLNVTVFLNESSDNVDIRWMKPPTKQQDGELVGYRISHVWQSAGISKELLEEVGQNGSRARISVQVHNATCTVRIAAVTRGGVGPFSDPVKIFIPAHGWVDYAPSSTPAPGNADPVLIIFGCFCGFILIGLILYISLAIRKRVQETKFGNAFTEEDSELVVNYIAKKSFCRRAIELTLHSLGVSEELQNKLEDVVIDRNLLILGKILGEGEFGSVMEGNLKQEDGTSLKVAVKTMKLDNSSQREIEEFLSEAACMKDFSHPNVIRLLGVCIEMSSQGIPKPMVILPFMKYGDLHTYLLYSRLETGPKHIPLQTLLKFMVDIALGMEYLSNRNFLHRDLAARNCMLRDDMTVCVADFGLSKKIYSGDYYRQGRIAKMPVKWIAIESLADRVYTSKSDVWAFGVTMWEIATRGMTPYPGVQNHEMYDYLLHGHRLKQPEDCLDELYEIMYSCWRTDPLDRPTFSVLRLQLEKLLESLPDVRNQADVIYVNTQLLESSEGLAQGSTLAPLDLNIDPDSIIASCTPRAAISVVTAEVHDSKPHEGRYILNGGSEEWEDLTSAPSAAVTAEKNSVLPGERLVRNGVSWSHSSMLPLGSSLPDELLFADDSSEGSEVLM

B1: C-terminally FLAG-tagged human Gas6 recombinant protein (hGas6-F) (ligand, not shown: small tags and cut ends)
chain: ALLPAREATQFLRPRQRRAFQVFEEAKQGHLERECVEELCSREEAREVFENDPETDYFYPRYLDCINKYGSPYTKNSGFATCVQNLPDQCTPNPCDRKGTQACQDLMGNFFCLCKAGWGGRLCDKDVNECSQENGGCLQICHNKPGSFHCSCHSGFELSSDGRTCQDIDECADSEACGEARCKNLPGSYSCLCDEGFAYSSQEKACRDVDECLQGRCEQVCVNSPGSYTCHCDGRGGLKLSQDMDTCEDILPCVPFSVAKSVKSLYLGRMFSGTPVIRLRFKRLQPTRLVAEFDFRTFDPEGILLFAGGHQDSTWIVLALRAGRLELQLRYNGVGRVTSSGPVINHGMWQTISVEELARNLVIKVNRDAVMKIAVAGDLFQPERGLYHLNLTVGGIPFHEKDLVQPINPRLDGCMRSWNWLNGEDTTIQETVKVNTRMQCFSVTERGSFYPGSGFAFYSLDYMRTPLDVGTESTWEVEVVAHIRPAADTGVLFALWAPDLRAVPLSVALVDYHSTKKLKKQLVVLAVEHTALALMEIKVCDGQEHVVTVSLRDGEATLEVDGTRGQSEVSAAQLQERLAVLERHLRSPVLTFAGGLPDVPVTSAPVTAFYRGCMTLEVNRRLLDLDEAAYKHSDITAHSCPPVEPAAA
modifications: gamma-carboxylated glutamic acid residues in the Gla domain (producer cells co-express rat VKOR and human GGCX); positions not given

Tests used:
[1] = target: B1; experiment: SPR Biacore T100, captured antibody, Gas6 analyte, retest
Procedure: (§1) An anti-human IgG antibody was immobilized on a CM5 sensor chip (manufactured by GE Healthcare Japan Corp.) using Human Antibody Capture Kit (manufactured by GE Healthcare Japan Corp.) according to the attached manual. Each test antibody adjusted to 1 μg/mL was added for 10 seconds at a flow rate of 10 μL/min to flow cells. […] The measurement was performed by the […] method. The obtained sensorgram was analyzed using Bia Evaluation Software (manufactured by GE Healthcare Japan Corp.), and the kinetic constant of each antibody was calculated.
In this retest, unlike the test mentioned above, the number of antibodies to be measured and variations in the concentration of the analyte were decreased, and the assay was conducted for a short time (within several hours), instead of sufficiently leaving standing the analyte added to the vial. […] This minimizes the adsorption of the analyte to the vial and permits more accurate calculation of ka and KD values than that in the test mentioned above.

[2] = target: B1; experiment: ELISA, hGas6-F captured by anti-FLAG, anti-human IgG-HRP
Procedure: First, 2 μg/mL anti-FLAG antibody [Monoclonal ANTI-FLAG M2 antibody produced in mouse (manufactured by Sigma-Aldrich Co. LLC) diluted with PBS (manufactured by Nacalai Tesque, Inc.)] was dispensed at 50 μL/well to a 96-well plate for ELISA (manufactured by Nalge Nunc International), and the plate was left standing overnight at 4° C. for adsorption. After removal of the immobilization solution, 1% BSA-PBS (manufactured by Nacalai Tesque, Inc.) was added thereto at 300 μL/well, and the plate was left standing at room temperature for 1 hour for blocking and washed five times with Tween 20-PBS (manufactured by Wako Pure Chemical Industries Ltd.).
In order to reduce the backgrounds of measurement values, the diluted secondary antibody solution was mixed with 50 μg/mL of an anti-DNP mouse IgG1 antibody and incubated at room temperature for 1 hour for use.

[3] = target: B1; experiment: competitive ELISA, inhibition of hGas6-F binding to immobilised hAxl-hFc
[4] = target: B1; experiment: SPR Biacore T100, captured antibody, Gas6 analyte, first test; reference line A-01 printed again at the head of the LV5 HV-series block (r24), same as r7
Procedure: as §1

[5] = target: B1; experiment: SPR Biacore T100, captured antibody, Gas6 analyte, first test
[6] = target: T1, human Sky forcedly expressed on HEK293F …; experiment: cell-based or functional assay
[7] = target: T2, human Mer forcedly expressed on HEK293F …; experiment: cell-based or functional assay

Kd [1] [nM] | koff [1] [s⁻¹] | kon [1] [M⁻¹ s⁻¹] | EC50 [2] [µg/mL] | IC50 [3] [µg/mL] | kon [4] [M⁻¹ s⁻¹] | Kd [5] [nM] | koff [5] [s⁻¹] | kon [5] [M⁻¹ s⁻¹] | luminescence intensity (Egr1-luciferase reporter, HEK293F forced to express human Sky) [6] [fold] | luminescence intensity (Egr1-luciferase reporter, HEK293F forced to express human Mer) [7] [fold] | Binder
0.73 | 0.000135 | 186000 | 0.0113 | 0.0218 | > 83700 | < 1.87 | 0.000156 | > 83700 | – | – | KM5320 chimeric antibody (antibody, V domains shown, also called KM5320 chimera; A-01) VH: QIQLVQSGPELKKPGETVKISCKASGYTFTNYGMNWVKQAPGKGLKWMGWINTETGEPTYSDDFKGRFAFSLETSATTAYLQINNLRNEDMATYFCAREDGYYGTLDYWGQGTSVTVSS VL: SIVMTQTPKFLLVSAGDRVTITCKASQSVSNDVAWYQQKPGQSPKVLIYYASNRYTGVPDRFTGSGYGTDFTFTISTVQAEDLAVYFCQQDYSSPWTFGGGTKLEIK
– | – | – | – | – | – | – | – | – | ~3 | ~3 | B1
